The values that follow come from patent publication US6348573B1, “Compositions and methods for identifying apoptosis signaling pathway inhibitors and activators” (The Regents of the University of Michigan, priority 1998, dated 2002).

For one assay, the target named is T1, FADD (Homo sapiens, UniProt Q13158).
T1 construct: made in house
T1 sequence (Q13158 1-208): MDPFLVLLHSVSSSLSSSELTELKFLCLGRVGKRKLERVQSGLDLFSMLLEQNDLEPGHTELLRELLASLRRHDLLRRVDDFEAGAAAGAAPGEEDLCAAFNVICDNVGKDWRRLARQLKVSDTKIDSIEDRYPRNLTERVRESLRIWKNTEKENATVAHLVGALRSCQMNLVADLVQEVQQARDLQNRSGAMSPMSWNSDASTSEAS
The assay is described as follows: In vitro phosphorylation of recombinant FADD by RICK immunoprecipitates. The assay is classed as biochemical. As to conditions: immunoprecipitates from 293T cells, 5 μM [γ-32P]ATP. From the text:
CIPERK proteins in total lysate were detected by immunoblotting with mAb to Flag (middle panel). Recombinant FADD on the same filter used in (A) was detected by immunoblotting, with rabbit polyclonal anti-(His)6 antibody (lower panel). Note CIPERK was autophosphorylated. The estimated molecular size is shown on the left [293T cells were transfected with vector control or plasmid expressing Flag-CIPERK (WT) or Flag-CIPERK-K38M (mt), and then CIPERK proteins were immunoprecipitated by mAb to Flag and incubated with recombinant FADD and 5 μM [γ-^32P]ATP].

The next assay addresses RICK (Homo sapiens, UniProt O43353). The assay is described as follows: Autophosphorylation of RICK. The following applies: immunoprecipitated from 293T cells, [γ-32P]ATP.

Sequence of RICK (O43353 with tags, fused parts or gaps): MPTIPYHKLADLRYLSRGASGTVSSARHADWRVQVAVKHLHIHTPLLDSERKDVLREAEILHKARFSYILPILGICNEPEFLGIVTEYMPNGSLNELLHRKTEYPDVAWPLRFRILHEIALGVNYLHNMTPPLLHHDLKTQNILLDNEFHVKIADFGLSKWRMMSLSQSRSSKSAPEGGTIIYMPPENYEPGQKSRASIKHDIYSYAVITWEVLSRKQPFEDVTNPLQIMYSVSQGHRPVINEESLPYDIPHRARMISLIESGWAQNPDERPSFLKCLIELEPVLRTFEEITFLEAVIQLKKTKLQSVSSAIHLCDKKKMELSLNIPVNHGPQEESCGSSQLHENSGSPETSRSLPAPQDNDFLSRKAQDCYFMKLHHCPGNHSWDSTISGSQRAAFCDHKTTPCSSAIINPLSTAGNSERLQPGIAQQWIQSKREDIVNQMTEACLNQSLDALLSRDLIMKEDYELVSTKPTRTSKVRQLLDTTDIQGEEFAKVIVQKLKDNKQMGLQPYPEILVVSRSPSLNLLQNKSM

“RICK-K38M: RICK ATP-binding site mutant, lysine at position 38 replaced by methionine”: the “phosphorylation of recombinant FADD” value in the assay with FADD was “did not”. Further, the auto-phosphorylation in vitro result with RICK is “dramatically decreased”.
